Experimental findings from patent US20090143319 are described below.

In series [1] the target is NF-kB p65 (RelA) (UniProt Q04206). The series can be described thus: competition. Particulars: unit not given.
The test system of series [2] is NF-kB. The experiment in a line: cell_activity. Particulars: NF-kB SEAP reporter, 0.1 uM.

NF-kB p65 (RelA), sequence (Q04206 whole entry): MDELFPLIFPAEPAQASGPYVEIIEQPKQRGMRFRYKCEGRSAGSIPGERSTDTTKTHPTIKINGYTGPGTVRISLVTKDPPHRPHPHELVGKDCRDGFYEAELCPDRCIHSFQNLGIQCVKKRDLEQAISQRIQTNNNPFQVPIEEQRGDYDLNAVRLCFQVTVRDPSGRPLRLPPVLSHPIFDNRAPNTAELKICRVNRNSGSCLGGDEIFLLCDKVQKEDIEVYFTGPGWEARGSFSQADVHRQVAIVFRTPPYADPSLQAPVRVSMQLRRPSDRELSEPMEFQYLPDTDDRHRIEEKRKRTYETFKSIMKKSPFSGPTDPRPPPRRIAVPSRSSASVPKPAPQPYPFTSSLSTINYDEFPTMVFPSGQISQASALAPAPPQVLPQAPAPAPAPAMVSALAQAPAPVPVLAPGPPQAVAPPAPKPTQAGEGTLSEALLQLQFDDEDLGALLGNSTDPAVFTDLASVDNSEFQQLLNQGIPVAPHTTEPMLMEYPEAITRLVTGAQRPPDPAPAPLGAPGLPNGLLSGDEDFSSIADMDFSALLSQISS

“CCTTGAAGGGATTTCCCTCC (double strand) [SEQ-x (full PS)]”: the IC50 in series [1] (PS at all positions, both strands, 2.60 in Table 3) was found to be 3.97.

The sequence “ACCAGGGGATTTCCCCGTCCCAC (double strand) [SEQ-G]” had an IC50 in series [1] of 1.71. “AGCTGGGGATTTCCCCTTTG (double strand) [SEQ-F]” gave an IC50 in series [1] of 3.4.

In series [2] (PS (*): G*A*GGGGATTT*C*CCC / antisense 3'-CTCCC*C*T*AAAG*G*GGG (so in the source)), GAGGGGATTTCCCC (double strand) [SEQ-35] gave an activity of 70 % inhibition.

In the case of GAGGGGATTTCCCC (double strand) [SEQ-34], in series [2] (PS (*): G*A*GGGGATTT*C*CCC / antisense 5'-G*GGGAAA*T*C*CCCTC), the activity was found to be 99 % inhibition. Regarding “CCTTGAAGGGATTTCCCTCC (double strand) [SEQ-1]”, the IC50 in series [1] (PS (*): C*C*TTGAAGG*G*A*TTTCCCT*C*C / G*G*AGGGAAA*T*C*CCTTCAA*G*G) was found to be 0.84. Consider “AGTATCGGGGATTTCCCCTTAAC (double strand) [SEQ-E]”, for which the IC50 in series [1] was 1.91. Regarding “CCTTGAGGGGATTTCCCCCC (double strand) [SEQ-I]”, the IC50 in series [1] worked out at 0.384. Sequence “TTGAGGGGATTTCCCC (double strand) [SEQ-38]” displayed an activity in series [2] (PS (*): TTG*A*GGGGATTT*C*CCC / antisense 5'-GGGGAAA*T*C*CCCTCAA) of 90 % inhibition. “AGTTGAGGGGATTTCCCCGC (double strand) [SEQ-H]” showed an IC50 in series [1] of 1.08.

As for “TTGAGGGGATTTCCCC (double strand) [SEQ-37]”, the activity in series [2] (PS (*): T*T*G*A*GGGGATTT*C*CCC / antisense 5'-G*G*GGAAA*T*C*CCCTCAA) turned out to be 75 % inhibition. In series [2] (PS (*): G*A*GGGGATTT*C*CCC / antisense 5'-GGGGAAA*T*C*CCCTC), GAGGGGATTTCCCC (double strand) [SEQ-33] gave an activity of 70 % inhibition. With “CCTTGAGGGGATTTCCCCCC (double strand) [SEQ-I-PS]”, the IC50 in series [1] (PS at 2 bonds at each end of both strands) worked out at 1.06.

With “TTGAGGGGATTTCCCC (double strand) [SEQ-36]”, the activity in series [2] (PS (*): T*TG*A*GGGGATTT*C*CCC / antisense 5'-G*GGGAAA*T*C*CCCTCAA) amounted to 80 % inhibition. In series [1] (ELISA competition with immobilized NF-kB site, room temperature), “AGTTGAGGGGATTTCCCCAGGC (double strand) [SEQ-A]” came in with an IC50 of 1.51.

For “CCTTGAGGGGATTTCCCCCC (double strand) [SEQ-9]”, the activity in series [2] (PS (*): C*C*TTG*A*GGGGATTT*C*CCCCC / antisense 5'-G*G*GGGGAAA*T*C*CCCTCAAGG) came out at 70 % inhibition.
